B1: Phospholipid-transporting ATPase accessory subunit LEM3 (Saccharomyces cerevisiae), P42838 (parent)
chain: MVNFDLGQVGEVFRRKDKGAIVSGDNPEEEEDVDASEFEEDEVKPVRTKNRRPKEDAFTQQRLAAINPVLTPRTVLPLYLLIAVVFVIVGGCILAQNSKVDEVTIYYQDCMTNATSSWSDIPSEHWQFVFHKYKTYNTAPQWRFVDDESDDFTKQRGTCQIRFTTPSDMKNNVYLNYVLEKFAANHRRYVLSFSEDQIRGEDASYETVHDATGINCKPLSKNADGKIYYPCGLIANSMFNDTFPLQLTNVGDTSNNYSLTNKGINWESDKKRYKKTKYNYTQIAPPPYWEKMYPDGYNETNIPDIQDWEEFQNWMRPGAFDKITKLIRINKNDTLPAGEYQLDIGLHWPVLEFNGKKGIYLTHGSHLGGRNPFLGIVYLIGGCICAAMALILLTFWLFGGRKIADASSLSWNMK
B2: Phospholipid-transporting ATPase accessory subunit CDC50 (Saccharomyces cerevisiae), P25656 (parent)
chain: MVSLFKRGKAPPLTKEGPTSKKPPNTAFRQQRLKAWQPILSPQSVLPLLIFVACIFTPIGIGLIVSATKVQDLTIDYSHCDTKASTTAFEDIPKKYIKYHFKSKVENKPQWRLTENENGEQSCELQFEIPNDIKKSIFIYYKITNFYQNHRRYVQSFDTKQILGEPIKKDDLDTSCSPIRSREDKIIYPCGLIANSMFNDTFSQVLSGIDDTEDYNLTNKHISWSIDRHRFKTTKYNASDIVPPPNWMKKYPDGYTDENLPDIHTWEEFQVWMRTAAFPKFYKLTLKNESASLPKGKYQMNIELNYPISLFGGTKSFVLTTNGAIGGRNMSLGVLYLIVAGLCALFGIIFLVKLIFQPRAMGDHTYLNFDDEENEDYEDVHAENTTLREIL
partner: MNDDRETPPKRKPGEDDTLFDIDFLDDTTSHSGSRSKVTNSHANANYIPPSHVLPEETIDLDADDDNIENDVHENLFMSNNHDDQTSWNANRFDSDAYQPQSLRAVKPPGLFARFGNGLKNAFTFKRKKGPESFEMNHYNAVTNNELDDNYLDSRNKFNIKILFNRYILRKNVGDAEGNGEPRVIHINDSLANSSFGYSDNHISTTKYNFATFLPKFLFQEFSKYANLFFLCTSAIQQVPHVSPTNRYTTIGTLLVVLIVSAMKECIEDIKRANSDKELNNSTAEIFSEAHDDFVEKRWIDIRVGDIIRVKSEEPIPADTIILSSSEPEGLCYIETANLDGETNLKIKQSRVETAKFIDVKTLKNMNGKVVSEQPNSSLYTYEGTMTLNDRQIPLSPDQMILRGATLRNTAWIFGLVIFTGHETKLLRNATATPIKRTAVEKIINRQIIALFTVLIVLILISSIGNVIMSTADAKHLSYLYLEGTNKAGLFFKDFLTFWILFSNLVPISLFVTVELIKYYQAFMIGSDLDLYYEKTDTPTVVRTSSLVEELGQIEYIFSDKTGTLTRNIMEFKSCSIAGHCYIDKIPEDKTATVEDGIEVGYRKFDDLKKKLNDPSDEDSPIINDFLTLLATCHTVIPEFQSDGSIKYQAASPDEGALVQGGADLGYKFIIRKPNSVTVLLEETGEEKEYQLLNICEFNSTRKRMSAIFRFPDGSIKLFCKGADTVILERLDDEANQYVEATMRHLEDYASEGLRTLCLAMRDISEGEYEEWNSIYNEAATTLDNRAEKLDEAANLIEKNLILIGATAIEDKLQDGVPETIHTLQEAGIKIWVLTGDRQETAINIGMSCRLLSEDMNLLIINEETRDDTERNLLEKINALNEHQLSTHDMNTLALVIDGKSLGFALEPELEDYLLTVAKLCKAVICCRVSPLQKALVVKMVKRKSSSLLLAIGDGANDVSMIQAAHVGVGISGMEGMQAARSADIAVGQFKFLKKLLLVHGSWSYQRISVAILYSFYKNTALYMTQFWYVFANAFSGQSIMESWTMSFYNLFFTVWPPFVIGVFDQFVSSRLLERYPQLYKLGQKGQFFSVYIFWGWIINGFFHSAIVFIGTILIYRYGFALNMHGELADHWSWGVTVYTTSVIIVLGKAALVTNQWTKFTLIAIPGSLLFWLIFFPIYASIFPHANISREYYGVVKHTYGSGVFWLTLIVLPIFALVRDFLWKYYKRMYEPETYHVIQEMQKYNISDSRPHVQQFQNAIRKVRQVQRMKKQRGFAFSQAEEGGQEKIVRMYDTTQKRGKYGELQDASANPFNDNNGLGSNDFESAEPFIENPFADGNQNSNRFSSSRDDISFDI
B3: Phospholipid-transporting ATPase accessory subunit CRF1 (Saccharomyces cerevisiae), P53740 (parent)
chain: MGLILRWKEKKQLSSKQNAQKSRKPANTSFRQQRLKAWQPILSPQSVLPLLILMACVFAPIGIGLVVSTISVQRLVVNYTECDALAPAKHFETIPSEYVDYHFSKKVAVQPQWMVLTDPELGNQTCRIQFEVPNHIKKSTYVYYRLTNFNQNYREYVQSLDLDQLKGKALIGNDLDPNCDPLRTVENKTIFPCGLIANSMFNDTFGTTLTGVNDTADYLLTTKGIAWDTDSHRYGKTEYNASDIVPPPNWAKLFPNGYTDDNIPDLQNWEQFKIWMRTAALPNFYKLAMKNETNGLGKGIYIADIELNYPVRSFYGTKSFVLTTNSIIGAGNEALGIVYLIVAGIATLFAILFLIKVIFKPRPMHDHSYLNFENSDTPFDESSVVSIPLREIL
B4: Phospholipid-transporting ATPase DRS2 (Saccharomyces cerevisiae), P39524 (parent)
chain: B2 partner
partner: B2 chain

Variants of: B1
Conditions: with atc5_yeast DNF1, P32660
Chain of atc5_yeast DNF1, P32660 (P32660 whole entry): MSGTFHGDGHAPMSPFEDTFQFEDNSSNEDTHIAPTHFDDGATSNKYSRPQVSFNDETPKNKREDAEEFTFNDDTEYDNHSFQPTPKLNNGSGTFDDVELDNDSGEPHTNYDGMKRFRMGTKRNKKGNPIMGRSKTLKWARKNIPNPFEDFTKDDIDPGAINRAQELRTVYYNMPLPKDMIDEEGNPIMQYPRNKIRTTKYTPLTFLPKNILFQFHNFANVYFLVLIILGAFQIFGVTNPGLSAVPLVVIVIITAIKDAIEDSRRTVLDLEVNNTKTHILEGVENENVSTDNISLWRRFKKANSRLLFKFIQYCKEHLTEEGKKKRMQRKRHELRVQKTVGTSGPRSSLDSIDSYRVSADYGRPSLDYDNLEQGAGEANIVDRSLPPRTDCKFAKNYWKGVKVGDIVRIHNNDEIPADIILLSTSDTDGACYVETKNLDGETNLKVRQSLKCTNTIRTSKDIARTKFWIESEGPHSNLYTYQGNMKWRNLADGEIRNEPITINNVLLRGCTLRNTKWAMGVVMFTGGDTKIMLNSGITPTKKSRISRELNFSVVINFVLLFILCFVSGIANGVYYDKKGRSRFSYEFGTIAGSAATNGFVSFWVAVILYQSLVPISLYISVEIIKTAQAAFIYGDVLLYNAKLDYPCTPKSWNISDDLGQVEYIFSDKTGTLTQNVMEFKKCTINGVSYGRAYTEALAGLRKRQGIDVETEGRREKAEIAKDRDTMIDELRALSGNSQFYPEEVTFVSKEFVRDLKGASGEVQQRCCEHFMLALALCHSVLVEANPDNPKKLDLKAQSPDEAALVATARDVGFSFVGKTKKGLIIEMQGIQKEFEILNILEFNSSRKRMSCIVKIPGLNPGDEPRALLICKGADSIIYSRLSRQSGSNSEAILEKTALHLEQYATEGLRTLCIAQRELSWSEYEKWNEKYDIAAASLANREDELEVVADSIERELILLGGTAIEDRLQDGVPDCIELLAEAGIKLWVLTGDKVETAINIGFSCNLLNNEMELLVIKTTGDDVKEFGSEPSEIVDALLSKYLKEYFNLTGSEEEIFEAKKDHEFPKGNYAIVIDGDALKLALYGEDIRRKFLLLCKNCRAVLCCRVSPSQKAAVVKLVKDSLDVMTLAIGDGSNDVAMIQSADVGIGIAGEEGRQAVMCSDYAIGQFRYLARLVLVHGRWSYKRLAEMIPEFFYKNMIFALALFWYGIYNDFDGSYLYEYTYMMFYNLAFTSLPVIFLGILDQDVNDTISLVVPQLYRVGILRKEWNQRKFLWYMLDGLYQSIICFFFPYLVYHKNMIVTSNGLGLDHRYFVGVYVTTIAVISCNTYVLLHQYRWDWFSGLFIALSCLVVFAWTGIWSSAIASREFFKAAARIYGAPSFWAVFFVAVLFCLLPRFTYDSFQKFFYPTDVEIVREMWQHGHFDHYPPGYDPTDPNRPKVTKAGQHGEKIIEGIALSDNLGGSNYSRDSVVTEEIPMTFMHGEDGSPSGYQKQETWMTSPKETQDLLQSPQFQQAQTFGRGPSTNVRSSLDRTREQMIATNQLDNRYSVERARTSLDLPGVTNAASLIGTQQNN

Variant	effect of a mutation on the interaction
A404V	disrupting interaction strength
A83T	disrupting interaction strength
C110A	disrupting interaction strength
S237L	disrupting interaction strength
G375E	disrupting interaction strength
C159A	disrupting interaction strength
C231A	decreasing interaction strength
C216A	disrupting interaction strength

Variants of: B1
Conditions: with atc5_yeast DNF1, P32660
Remark: another data set of the same source

Variant	effect of a mutation on the interaction
A65V	decreasing interaction strength

Variants of: B2
Conditions: with atc3_yeast DRS2, P39524

Variant	effect of a mutation on the interaction
C80A	disrupting interaction strength
C176A	decreasing interaction strength
C123A	disrupting interaction strength
C190A	decreasing interaction strength

Variants of: B3
Conditions: with atc8_yeast DNF3, Q12674
Chain of atc8_yeast DNF3, Q12674 (Q12674 whole entry): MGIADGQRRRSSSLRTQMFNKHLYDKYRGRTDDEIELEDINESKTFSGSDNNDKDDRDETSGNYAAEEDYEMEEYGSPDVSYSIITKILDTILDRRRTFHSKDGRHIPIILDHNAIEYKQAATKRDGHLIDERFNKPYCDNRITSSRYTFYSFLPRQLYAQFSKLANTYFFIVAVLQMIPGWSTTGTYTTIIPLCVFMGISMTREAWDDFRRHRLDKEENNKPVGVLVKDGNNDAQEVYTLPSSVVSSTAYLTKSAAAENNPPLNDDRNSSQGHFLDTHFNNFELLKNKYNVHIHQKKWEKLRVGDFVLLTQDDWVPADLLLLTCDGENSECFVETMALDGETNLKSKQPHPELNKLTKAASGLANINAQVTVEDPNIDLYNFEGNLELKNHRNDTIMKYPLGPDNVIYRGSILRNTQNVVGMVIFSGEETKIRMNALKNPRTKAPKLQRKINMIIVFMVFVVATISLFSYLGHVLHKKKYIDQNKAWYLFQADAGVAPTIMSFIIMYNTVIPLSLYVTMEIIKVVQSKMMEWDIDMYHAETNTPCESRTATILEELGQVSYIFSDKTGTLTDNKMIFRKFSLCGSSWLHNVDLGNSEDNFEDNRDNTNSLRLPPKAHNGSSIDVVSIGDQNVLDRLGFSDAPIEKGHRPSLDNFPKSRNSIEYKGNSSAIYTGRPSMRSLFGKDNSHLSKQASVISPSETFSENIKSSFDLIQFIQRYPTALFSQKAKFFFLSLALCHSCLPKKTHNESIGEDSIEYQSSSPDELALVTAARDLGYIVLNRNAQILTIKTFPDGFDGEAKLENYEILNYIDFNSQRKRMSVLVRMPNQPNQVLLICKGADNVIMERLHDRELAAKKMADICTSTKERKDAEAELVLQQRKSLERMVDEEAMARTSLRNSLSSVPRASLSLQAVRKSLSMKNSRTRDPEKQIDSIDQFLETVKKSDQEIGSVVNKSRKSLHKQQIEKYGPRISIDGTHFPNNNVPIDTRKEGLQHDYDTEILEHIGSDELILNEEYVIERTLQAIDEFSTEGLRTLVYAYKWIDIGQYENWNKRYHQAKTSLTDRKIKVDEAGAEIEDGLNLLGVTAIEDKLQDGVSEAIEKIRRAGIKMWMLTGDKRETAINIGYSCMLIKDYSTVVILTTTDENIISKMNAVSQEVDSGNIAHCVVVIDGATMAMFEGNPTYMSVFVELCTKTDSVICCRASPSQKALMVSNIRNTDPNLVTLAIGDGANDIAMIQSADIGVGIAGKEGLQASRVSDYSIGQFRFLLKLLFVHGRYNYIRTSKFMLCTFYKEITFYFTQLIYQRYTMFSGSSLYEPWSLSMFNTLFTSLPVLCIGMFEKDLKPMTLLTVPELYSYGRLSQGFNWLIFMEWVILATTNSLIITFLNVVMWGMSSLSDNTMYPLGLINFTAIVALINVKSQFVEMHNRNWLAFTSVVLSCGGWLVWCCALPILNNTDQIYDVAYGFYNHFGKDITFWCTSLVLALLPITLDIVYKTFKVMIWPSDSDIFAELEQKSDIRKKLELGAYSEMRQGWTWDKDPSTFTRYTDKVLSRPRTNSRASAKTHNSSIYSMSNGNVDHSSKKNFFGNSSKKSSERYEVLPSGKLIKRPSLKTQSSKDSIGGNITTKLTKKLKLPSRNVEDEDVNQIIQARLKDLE

Variant	effect of a mutation on the interaction
C179A	decreasing interaction strength
C193A	decreasing interaction strength
C82A	disrupting interaction strength
C126A	disrupting interaction strength

Variants of: B4
Conditions: with cdc50_yeast CDC50, P25656

Variant	effect of a mutation on the interaction
E342Q	with no effect
D560N	disrupting interaction strength
G341L	disrupting interaction strength
